In patent publication US20230257454A1 (STAIDSON BEIJING BIOPHARMACEUTICALS, published 2023):
Substitutions are numbered along the chain they refer to.

What was measured:
C5a-D69A = biological target: T1, C5a-D69A; assay: ELISA on the coated C5a protein, antibody titrated, OD410
T1 single chain: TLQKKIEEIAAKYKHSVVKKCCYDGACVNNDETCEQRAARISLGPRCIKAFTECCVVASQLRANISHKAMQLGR

C5a-S66R = biological target: T2, C5a-S66R; assay: as above
T2 single chain: T1 single chain with S66R, A69D

C5a-K68A = biological target: T3, C5a-K68A; assay: as above
T3 single chain: T1 single chain with K68A, A69D

C5a-M70A = biological target: T4, C5a-M70A; assay: as above
T4 single chain: T1 single chain with A69D, M70A

[1] = biological target: T5, native full-length human complement component C5 (human, UniProt P01031 19-673; P01031 678-1676); assay: ELISA, plate coated with human native C5, full-length antibody titrated, OD410
T5 construct: mature; The native protein has two disulfide-linked chains (alpha and beta) made from one precursor; also called human native C5
T5 sequence (P01031 19-673 limits assumed, one chain of several): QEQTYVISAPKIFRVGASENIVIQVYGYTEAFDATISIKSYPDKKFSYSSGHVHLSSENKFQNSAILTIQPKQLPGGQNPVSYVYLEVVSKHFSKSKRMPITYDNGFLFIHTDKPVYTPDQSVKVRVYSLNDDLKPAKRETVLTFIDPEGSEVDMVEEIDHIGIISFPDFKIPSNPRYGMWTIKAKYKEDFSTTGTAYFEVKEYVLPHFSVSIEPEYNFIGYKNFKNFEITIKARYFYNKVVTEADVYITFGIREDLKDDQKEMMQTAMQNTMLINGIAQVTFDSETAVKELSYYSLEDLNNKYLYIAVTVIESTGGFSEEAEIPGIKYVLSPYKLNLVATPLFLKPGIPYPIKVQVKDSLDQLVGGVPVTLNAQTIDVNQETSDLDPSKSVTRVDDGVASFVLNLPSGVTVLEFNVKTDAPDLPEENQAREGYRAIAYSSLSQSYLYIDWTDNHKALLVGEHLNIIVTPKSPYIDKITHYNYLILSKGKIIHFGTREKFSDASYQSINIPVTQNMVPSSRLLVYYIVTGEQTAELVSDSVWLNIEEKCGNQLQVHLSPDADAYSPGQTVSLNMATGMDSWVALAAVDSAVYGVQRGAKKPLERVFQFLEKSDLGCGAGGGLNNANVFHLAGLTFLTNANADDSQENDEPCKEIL

[2] = biological target: T6, human C5a (source not stated) (human, UniProt P01031 678-751); assay: cell-based or functional assay
T6 sequence: T1 single chain with A69D

C5a-E35A = biological target: T7, C5a-E35A; assay: ELISA on the coated C5a protein, antibody titrated, OD410
T7 single chain: T1 single chain with E35A, A69D

C5a-N30A = biological target: T8, C5a-N30A; assay: as above
T8 single chain: T1 single chain with N30A, A69D

C5a-R62A = biological target: T9, C5a-R62A; assay: as above
T9 single chain: T1 single chain with R62A, A69D

C5a-T33A = biological target: T10, C5a-T33A; assay: as above
T10 single chain: T1 single chain with T33A, A69D

C5a-Q36A = biological target: T11, C5a-Q36A; assay: as above
T11 single chain: T1 single chain with Q36A, A69D

human endogenous C5a = biological target: T12, human endogenous C5a (human, UniProt P01031 678-751, limits assumed); assay: cell-based or functional assay
T12 sequence: T1 single chain with A69D

[3] = biological target: T6, human C5a (source not stated); assay: ELISA on the coated protein, biotinylated Cab42 titrated, SA-HRP, OD410

B1: Cab42-IgG1 (antibody, V domains shown)
VH: EMQLVESGGGLVQPGGSLRLSCAASGFTFSDYYMQWVRQAPGKGPEWVGLIRNKAVGETTQYAASVKGRFTISRDDSKNSVYLQMNSLKTEDTAVYYCVSRAGPPGLSWGQGVLVTVSS
VL: DIVMTQSPLSLPVTPGEPASISCRSSQSLLASDAYNYIDWYLQKPGQSPQLLIYGGSNRASGVPDRFSGSGSGTDFTLKISRVEAEDVGVYFCLQHRALPPTFGQGTKLEIK
notes: Full-length human IgG1; It was biotinylated in the peptide-Fc ELISA
C5a-D69A
  binding result: binds
C5a-S66R
  binding result: binds
C5a-K68A
  binding result: binds
C5a-M70A
  binding result: binds
[1]
  EC50 (read off the curve): ~10 ng/mL
[2]
  ROS IC50: 0.78 nM
C5a-E35A
  binding result: binds
C5a-N30A
  binding result: binds
C5a-R62A
  binding result: binds
C5a-T33A
  binding result: binds
C5a-Q36A
  binding result: binds
Human endogenous C5a
  eC5a IC50(nM), CD11b up-regulation on human neutrophils in whole blood: 2.05 nM
  eC5a+50*C5 IC50(nM), CD11b up-regulation on human neutrophils in whole blood with 50 times more C5: 31 nM
[3]
  EC50 (read off the curve): ~30 ng/w
